Assay results: publication PMC5515574

Columns and labels:
[1] = target: wild-type yeast αβ-tubulin with a His6 tag fused to the C-terminus of β-tubulin (yeast (S. cerevisiae)) (UniProt P09733); assay: laser trap plucking force assay; bead tethered by a single anti-His antibody to the His6 tag of β-tubulin at the growing end of a coverslip-anchored microtubule; force ramp 0.25 pN s^-1 until detachment; only detachments followed at once by disassembly counted; removal of tubulin dimers from the microtubule end
[2] = target: mutant T238V yeast αβ-tubulin (T238V in Tub2p, β-tubulin) (yeast (S. cerevisiae)) (UniProt P09733); assay: as above

| Substance | plucking force [1] | plucking force [2] |
| --- | --- | --- |
| wild-type yeast αβ-tubulin with a His6 tag fused to the C-terminus of β-tubulin (from UniProt P09733 1-447; P02557 1-457) (complex) | 8.3 pN |  |
| mutant T238V yeast αβ-tubulin (T238V in Tub2p, β-tubulin) (from UniProt P09733 1-447; P02557 1-457) (complex) |  | 19 pN |
